# Measured values reported in US20150299296A1 (Chugai, published 2015).
# T1: human FcγRIIb extracellular domain with C-terminal His tag (human, UniProt P31994 43-217)
# T1 construct: extracellular domain; For crystals it was expressed with kifunensine and trimmed with Endo F1; also called FcgRIIb; FcγRIIb extracellular region
# T1 sequence (looked up): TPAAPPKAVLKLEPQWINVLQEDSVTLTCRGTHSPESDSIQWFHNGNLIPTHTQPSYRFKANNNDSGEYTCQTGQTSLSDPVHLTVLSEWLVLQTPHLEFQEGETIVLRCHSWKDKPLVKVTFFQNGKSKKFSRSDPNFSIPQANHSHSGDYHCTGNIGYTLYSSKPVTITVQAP
# Target: T1, human FcγRIIb extracellular domain with …
# Experiment: SPR KD ratio
Binder,fold binding (IL6R-B3/IL6R-L = 1) [times],fold binding against the native form [fold]
"IL6R-BP489/IL6R-L (antibody, human IgG1, kappa) heavy: QVQLQESGPGLVKPSETLSLTCAVSGHSISHDHAWSWVRQPPGEGLEWIGFISYSGITNYNPSLQGRVTISRDNSKNTLYLQMNSLRAEDTAVYYCARSLARTTAMDYWGEGTLVTVSSASTKGPSVFPLAPSSKSTSGGTAALGCLVKDYFPEPVTVSWNSGALTSGVHTFPAVLQSSGLYSLSSVVTVPSSSLGTQTYICNVNHKPSNTKVDKKVEPKSCDKTHTCPPCPAPDLLGDDSVFLFPPKPKDTLMISRTPEVTCVVIDVAEEDGEVKFNWYVDGVEVHNAKTKPREEQDNSTYRVVSVLTVLHQDWLNGKEYKCKVSNKALPRPIEKTISKAKGQPREPQVYTLPPSRDELTKNQVSLTCLVKGFYPSDIAVEWESNGQPENNYKTTPMVLDSDGSFFLYSKLTVDKSRWQQGNVFSCSVMHEALHNHYTQESLSLSP light: not shown",3100,–
"IL6R-BP493/IL6R-L (antibody, human IgG1, kappa) heavy: QVQLQESGPGLVKPSETLSLTCAVSGHSISHDHAWSWVRQPPGEGLEWIGFISYSGITNYNPSLQGRVTISRDNSKNTLYLQMNSLRAEDTAVYYCARSLARTTAMDYWGEGTLVTVSSASTKGPSVFPLAPSSKSTSGGTAALGCLVKDYFPEPVTVSWNSGALTSGVHTFPAVLQSSGLYSLSSVVTVPSSSLGTQTYICNVNHKPSNTKVDKKVEPKSCDKTHTCPPCPAPELLGGDSVFLFPPKPKDTLMISRTPEVTCVVIDVAEEDGEVKFNWYVDGVEVHNAKTKPREEQDNSTYRVVSVLTVLHQDWLNGKEYKCKVSNKALPAPIEKTISKAKGQPREPQVYTLPPSRDELTKNQVSLTCLVKGFYPSDIAVEWESNGQPENNYKTTPPVLDSDGSFFLYSKLTVDKSRWQQGNVFSCSVMHEALHNHYTQESLSLSP light: not shown",–,147
IL6R-BP568/IL6R-L (antibody) heavy: QVQLQESGPGLVKPSETLSLTCAVSGHSISHDHAWSWVRQPPGEGLEWIGFISYSGITNYNPSLQGRVTISRDNSKNTLYLQMNSLRAEDTAVYYCARSLARTTAMDYWGEGTLVTVSSASTKGPSVFPLAPSSKSTSGGTAALGCLVKDYFPEPVTVSWNSGALTSGVHTFPAVLQSSGLYSLSSVVTVPSSSLGTQTYICNVNHKPSNTKVDKKVEPKSCDKTHTCPPCPAPDLLGGDSVFLFPPKPKDTLMISRTPEVTCVVIDVAEEDGEVKFNWYVDGVEVHNAKTKPREEQYNSTYRVVSVLTVLHQDWLNGKEYKCKVSNKALPAPIEKTISKAKGQPREPQVYTLPPSRDELTKNQVSLTCLVKGFYPSDIAVEWESNGQPENNYKTTPPVLDSDGSFFLYSKLTVDKSRWQQGNVFSCSVMHEALHNHYTQESLSLSP light: not shown,–,211
"IL6R-BP492/IL6R-L (antibody, human IgG1, kappa) heavy: QVQLQESGPGLVKPSETLSLTCAVSGHSISHDHAWSWVRQPPGEGLEWIGFISYSGITNYNPSLQGRVTISRDNSKNTLYLQMNSLRAEDTAVYYCARSLARTTAMDYWGEGTLVTVSSASTKGPSVFPLAPSSKSTSGGTAALGCLVKDYFPEPVTVSWNSGALTSGVHTFPAVLQSSGLYSLSSVVTVPSSSLGTQTYICNVNHKPSNTKVDKKVEPKSCDKTHTCPPCPAPELLGGDSVFLFPPKPKDTLMISRTPEVTCVVIDVAEEDGEVKFNWYVDGVEVHNAKTKPREEQYNSTYRVVSVLTVLHQDWLNGKEYKCKVSNKALPAPIEKTISKAKGQPREPQVYTLPPSRDELTKNQVSLTCLVKGFYPSDIAVEWESNGQPENNYKTTPPVLDSDGSFFLYSKLTVDKSRWQQGNVFSCSVMHEALHNHYTQESLSLSP light: not shown",–,131
"IL6R-BP495/IL6R-L (antibody, human IgG1, kappa) heavy: QVQLQESGPGLVKPSETLSLTCAVSGHSISHDHAWSWVRQPPGEGLEWIGFISYSGITNYNPSLQGRVTISRDNSKNTLYLQMNSLRAEDTAVYYCARSLARTTAMDYWGEGTLVTVSSASTKGPSVFPLAPSSKSTSGGTAALGCLVKDYFPEPVTVSWNSGALTSGVHTFPAVLQSSGLYSLSSVVTVPSSSLGTQTYICNVNHKPSNTKVDKKVEPKSCDKTHTCPPCPAPELLGDDSVFLFPPKPKDTLMISRTPEVTCVVVDVGEEDGEVKFNWYVDGVEVHNAKTKPREEQDNSTYRVVSVLTVLHQDWLNGKEYKCKVSNKALPRPIEKTISKAKGQPREPQVYTLPPSRDELTKNQVSLTCLVKGFYPSDIAVEWESNGQPENNYKTTPPVLDSDGSFFLYSKLTVDKSRWQQGNVFSCSVMHEALHNHYTQESLSLSP light: not shown",321,–

# Target: T1, human FcγRIIb extracellular domain with …
# Experiment: SPR (Biacore): amount of FcγRIIb bound per captured antibody, relative to the pre-altered antibody GpH7-B3/GpL16-k0 = 100 (Reference Examples 2, 3 and 6)
row,Binder,binding result
1,"G237W (antibody, human IgG1, kappa, also called GpH7-B3 with G237W / GpL16-k0 (no P238D)) heavy chain: not shown light chain: DIVMTQSPLSLPVTPGEPASISCQASESLVHSNRNTYLHWYLQKPGQSPQLLIYKVSNRFSGVPDRFSGSGSGTDFTLKISRVEAEDVGVYYCSQNTHVPPTFGQGTKVEIERTVAAPSVFIFPPSDEQLKSGTASVVCLLNNFYPREAKVQWKVDNALQSGNSQESVTEQDSKDSTYSLSSTLTLSKADYEKHKVYACEVTHQGLSSPVTKSFNRGEC",binds
2,"G237E (antibody, human IgG1, kappa, also called GpH7-B3 with G237E / GpL16-k0 (no P238D)) heavy chain: not shown light chain: DIVMTQSPLSLPVTPGEPASISCQASESLVHSNRNTYLHWYLQKPGQSPQLLIYKVSNRFSGVPDRFSGSGSGTDFTLKISRVEAEDVGVYYCSQNTHVPPTFGQGTKVEIERTVAAPSVFIFPPSDEQLKSGTASVVCLLNNFYPREAKVQWKVDNALQSGNSQESVTEQDSKDSTYSLSSTLTLSKADYEKHKVYACEVTHQGLSSPVTKSFNRGEC",binds
3,"G237Y (antibody, human IgG1, kappa, also called GpH7-B3 with G237Y / GpL16-k0 (no P238D)) heavy chain: not shown light chain: DIVMTQSPLSLPVTPGEPASISCQASESLVHSNRNTYLHWYLQKPGQSPQLLIYKVSNRFSGVPDRFSGSGSGTDFTLKISRVEAEDVGVYYCSQNTHVPPTFGQGTKVEIERTVAAPSVFIFPPSDEQLKSGTASVVCLLNNFYPREAKVQWKVDNALQSGNSQESVTEQDSKDSTYSLSSTLTLSKADYEKHKVYACEVTHQGLSSPVTKSFNRGEC",binds
4,"L234W (antibody, human IgG1, kappa, also called GpH7-B3 with L234W / GpL16-k0 (no P238D)) heavy chain: not shown light chain: DIVMTQSPLSLPVTPGEPASISCQASESLVHSNRNTYLHWYLQKPGQSPQLLIYKVSNRFSGVPDRFSGSGSGTDFTLKISRVEAEDVGVYYCSQNTHVPPTFGQGTKVEIERTVAAPSVFIFPPSDEQLKSGTASVVCLLNNFYPREAKVQWKVDNALQSGNSQESVTEQDSKDSTYSLSSTLTLSKADYEKHKVYACEVTHQGLSSPVTKSFNRGEC",binds
5,"G237A (antibody, human IgG1, kappa, also called GpH7-B3 with G237A / GpL16-k0 (no P238D)) heavy chain: not shown light chain: DIVMTQSPLSLPVTPGEPASISCQASESLVHSNRNTYLHWYLQKPGQSPQLLIYKVSNRFSGVPDRFSGSGSGTDFTLKISRVEAEDVGVYYCSQNTHVPPTFGQGTKVEIERTVAAPSVFIFPPSDEQLKSGTASVVCLLNNFYPREAKVQWKVDNALQSGNSQESVTEQDSKDSTYSLSSTLTLSKADYEKHKVYACEVTHQGLSSPVTKSFNRGEC",binds
6,"L234Y (antibody, human IgG1, kappa, also called GpH7-B3 with L234Y / GpL16-k0 (no P238D)) heavy chain: not shown light chain: DIVMTQSPLSLPVTPGEPASISCQASESLVHSNRNTYLHWYLQKPGQSPQLLIYKVSNRFSGVPDRFSGSGSGTDFTLKISRVEAEDVGVYYCSQNTHVPPTFGQGTKVEIERTVAAPSVFIFPPSDEQLKSGTASVVCLLNNFYPREAKVQWKVDNALQSGNSQESVTEQDSKDSTYSLSSTLTLSKADYEKHKVYACEVTHQGLSSPVTKSFNRGEC",binds
7,"G237D (antibody, human IgG1, kappa, also called GpH7-B3 with G237D / GpL16-k0 (no P238D)) heavy chain: not shown light chain: DIVMTQSPLSLPVTPGEPASISCQASESLVHSNRNTYLHWYLQKPGQSPQLLIYKVSNRFSGVPDRFSGSGSGTDFTLKISRVEAEDVGVYYCSQNTHVPPTFGQGTKVEIERTVAAPSVFIFPPSDEQLKSGTASVVCLLNNFYPREAKVQWKVDNALQSGNSQESVTEQDSKDSTYSLSSTLTLSKADYEKHKVYACEVTHQGLSSPVTKSFNRGEC",binds
8,"S239D (antibody, human IgG1, kappa, also called GpH7-B3 with S239D / GpL16-k0 (no P238D)) heavy chain: not shown light chain: DIVMTQSPLSLPVTPGEPASISCQASESLVHSNRNTYLHWYLQKPGQSPQLLIYKVSNRFSGVPDRFSGSGSGTDFTLKISRVEAEDVGVYYCSQNTHVPPTFGQGTKVEIERTVAAPSVFIFPPSDEQLKSGTASVVCLLNNFYPREAKVQWKVDNALQSGNSQESVTEQDSKDSTYSLSSTLTLSKADYEKHKVYACEVTHQGLSSPVTKSFNRGEC",binds
9,"G237F (antibody, human IgG1, kappa, also called GpH7-B3 with G237F / GpL16-k0 (no P238D)) heavy chain: not shown light chain: DIVMTQSPLSLPVTPGEPASISCQASESLVHSNRNTYLHWYLQKPGQSPQLLIYKVSNRFSGVPDRFSGSGSGTDFTLKISRVEAEDVGVYYCSQNTHVPPTFGQGTKVEIERTVAAPSVFIFPPSDEQLKSGTASVVCLLNNFYPREAKVQWKVDNALQSGNSQESVTEQDSKDSTYSLSSTLTLSKADYEKHKVYACEVTHQGLSSPVTKSFNRGEC",binds
10,"G237M (antibody, human IgG1, kappa, also called GpH7-B3 with G237M / GpL16-k0 (no P238D)) heavy chain: not shown light chain: DIVMTQSPLSLPVTPGEPASISCQASESLVHSNRNTYLHWYLQKPGQSPQLLIYKVSNRFSGVPDRFSGSGSGTDFTLKISRVEAEDVGVYYCSQNTHVPPTFGQGTKVEIERTVAAPSVFIFPPSDEQLKSGTASVVCLLNNFYPREAKVQWKVDNALQSGNSQESVTEQDSKDSTYSLSSTLTLSKADYEKHKVYACEVTHQGLSSPVTKSFNRGEC",binds
11,"G237L (antibody, human IgG1, kappa, also called GpH7-B3 with G237L / GpL16-k0 (no P238D)) heavy chain: not shown light chain: DIVMTQSPLSLPVTPGEPASISCQASESLVHSNRNTYLHWYLQKPGQSPQLLIYKVSNRFSGVPDRFSGSGSGTDFTLKISRVEAEDVGVYYCSQNTHVPPTFGQGTKVEIERTVAAPSVFIFPPSDEQLKSGTASVVCLLNNFYPREAKVQWKVDNALQSGNSQESVTEQDSKDSTYSLSSTLTLSKADYEKHKVYACEVTHQGLSSPVTKSFNRGEC",binds
